Results: PMC5669353 (Biochemistry and Biophysics Reports, 2015)

Legend:
lactoperoxidase [1] = molecular target: T1, lactoperoxidase (Bos taurus, UniProt P80025); format: biochemical
lactoperoxidase [2] = molecular target: T1, lactoperoxidase; settings: read-out: Km, / µM; 80 uM H2O2, 2 mM SCN-, pH 7.4, 37 C; substrate
COc1ccc(C(=O)O)cc1O = experiment: purified protein, by the assay type
O=C(O)c1cccc(O)c1O = experiment: purified protein, by the assay type
O=C(O)/C=C/c1ccc(O)cc1 = experiment: purified protein, by the assay type
O=C(O)c1ccccc1O = experiment: purified protein, by the assay type
[3] = system: O=C1c2c(O)cc(O)cc2O[C@H](c2ccc(O)c(O)c2)[C@H]1O; experiment: purified protein, by the assay type
O=C(O)c1ccc(O)cc1 = experiment: purified protein, by the assay type
O=C(O)c1cc(O)c(O)c(O)c1 = experiment: purified protein, by the assay type
O=C(O)c1c(O)cccc1O = experiment: purified protein, by the assay type
O=C(O)/C=C/c1cccc(O)c1 = experiment: purified protein, by the assay type
O=C(O)c1cccc(O)c1 = experiment: purified protein, by the assay type
[4] = system: O=C1C[C@@H](c2ccc(O)cc2)Oc2cc(O)cc(O)c21; experiment: purified protein, by the assay type
O=C(O)c1cc(O)cc(O)c1 = experiment: purified protein, by the assay type
O=C(O)c1cc(O)ccc1O = experiment: purified protein, by the assay type
[5] = system: O=C1C[C@@H](c2ccc(O)c(O)c2)Oc2cc(O)cc(O)c21; experiment: purified protein, by the assay type
O=C(O)c1ccc(O)c(O)c1O = experiment: purified protein, by the assay type
OCCc1ccc(O)cc1 = experiment: purified protein, by the assay type
O=C(O)c1ccc(O)cc1O = experiment: purified protein, by the assay type
COc1cc(C(=O)O)ccc1O = experiment: purified protein, by the assay type
[6] = system: O=C(O)/C=C/c1ccc(O)c(O)c1; experiment: purified protein; settings: heme
[7] = system: O=c1cc(-c2ccc(O)c(O)c2)oc2cc(O)cc(O)c12; experiment: purified protein; settings: heme
[8] = system: O=c1cc(-c2ccc(O)cc2)oc2cc(O)cc(O)c12; experiment: purified protein; settings: heme
OCCc1ccc(O)c(O)c1 = experiment: purified protein; settings: heme substrate channel of LPO
[9] = system: O=c1c(O)c(-c2ccc(O)c(O)c2)oc2cc(O)cc(O)c12; experiment: purified protein; settings: heme
[10] = system: O=C1C[C@@H](c2ccc(O)c(O)c2)Oc2cc(O)cc(O)c21; experiment: purified protein; settings: heme
O=C(O)c1ccc(O)c(O)c1 = experiment: purified protein; settings: heme
[11] = system: Oc1cc(O)c2c(c1)O[C@H](c1ccc(O)c(O)c1)[C@H](O)C2; experiment: purified protein; settings: heme

Question: How did the IC50 (lactoperoxidase [1]) turn out when `O=C(O)c1c(O)cc(O)cc1O` [2,4,6-trihydroxybenzoic acid] was run?
Answer: 36.7 ± 9.6 µM

Question: With `COc1ccc(C(=O)O)cc1OC` [3,4-dimethoxybenzoic acid] as the compound, how does the Km (lactoperoxidase [2]) read?
Answer: 981 ± 69.8 µM

Question: For `O=c1cc(-c2ccccc2)oc2cc(O)cc(O)c12` [chrysin], which IC50 (lactoperoxidase [1]) is on record?
Answer: 0.23 ± 0.15 µM

Question: For lactoperoxidase (Bos taurus), which Km (COc1ccc(C(=O)O)cc1O) is on record?
Answer: 803.5 ± 147.2 µM

Question: What about the kcat (COc1ccc(C(=O)O)cc1O) of the same compound?
Answer: 67.7 s⁻¹

Question: And the kcat/Km (COc1ccc(C(=O)O)cc1O)?
Answer: 80000 M⁻¹ s⁻¹

Question: What about the Km (O=C(O)c1cccc(O)c1O) of the same compound?
Answer: 71.3 ± 1.3 µM

Question: What about the kcat (O=C(O)c1cccc(O)c1O) of the same compound?
Answer: 17.9 s⁻¹

Question: And the kcat/Km (O=C(O)c1cccc(O)c1O)?
Answer: 250000 M⁻¹ s⁻¹

Question: What about the Km (O=C(O)/C=C/c1ccc(O)cc1) of the same compound?
Answer: 35.1 ± 0.1 µM

Question: What about the kcat (O=C(O)/C=C/c1ccc(O)cc1) of the same compound?
Answer: 11 s⁻¹

Question: And the kcat/Km (O=C(O)/C=C/c1ccc(O)cc1)?
Answer: 310000 M⁻¹ s⁻¹

Question: What about the Km (O=C(O)c1ccccc1O) of the same compound?
Answer: 1638.4 ± 439.3 µM

Question: And the Km [3]?
Answer: 0.8 ± 0.0 µM

Question: What about the kcat [3] of the same compound?
Answer: 48.2 s⁻¹

Question: And the kcat/Km [3]?
Answer: 6.3e+07 M⁻¹ s⁻¹

Question: And the Km (O=C(O)c1ccc(O)cc1)?
Answer: 119.6 ± 8.1 µM

Question: What about the kcat (O=C(O)c1ccc(O)cc1) of the same compound?
Answer: 16.7 s⁻¹

Question: And the kcat/Km (O=C(O)c1ccc(O)cc1)?
Answer: 140000 M⁻¹ s⁻¹

Question: And the Km (O=C(O)c1cc(O)c(O)c(O)c1)?
Answer: 176.8 ± 0.0 µM

Question: What about the kcat (O=C(O)c1cc(O)c(O)c(O)c1) of the same compound?
Answer: 30.9 s⁻¹

Question: And the kcat/Km (O=C(O)c1cc(O)c(O)c(O)c1)?
Answer: 180000 M⁻¹ s⁻¹

Question: What about the Km (O=C(O)c1c(O)cccc1O) of the same compound?
Answer: 149.1 ± 51.4 µM

Question: And the kcat (O=C(O)c1c(O)cccc1O)?
Answer: 14.8 s⁻¹

Question: And the kcat/Km (O=C(O)c1c(O)cccc1O)?
Answer: 100000 M⁻¹ s⁻¹

Question: What about the Km (O=C(O)/C=C/c1cccc(O)c1) of the same compound?
Answer: 37.8 ± 8.9 µM

Question: And the kcat (O=C(O)/C=C/c1cccc(O)c1)?
Answer: 24 s⁻¹

Question: And the kcat/Km (O=C(O)/C=C/c1cccc(O)c1)?
Answer: 630000 M⁻¹ s⁻¹

Question: What about the Km (O=C(O)c1cccc(O)c1) of the same compound?
Answer: 144.2 ± 28.9 µM

Question: And the kcat (O=C(O)c1cccc(O)c1)?
Answer: 36.5 s⁻¹

Question: What about the kcat/Km (O=C(O)c1cccc(O)c1) of the same compound?
Answer: 250000 M⁻¹ s⁻¹

Question: And the Km [4]?
Answer: 0.2 ± 0.0 µM

Question: And the kcat [4]?
Answer: 19 s⁻¹

Question: What about the kcat/Km [4] of the same compound?
Answer: 1.03e+08 M⁻¹ s⁻¹

Question: And the Km (O=C(O)c1cc(O)cc(O)c1)?
Answer: 118.0 ± 7.9 µM

Question: And the kcat (O=C(O)c1cc(O)cc(O)c1)?
Answer: 22.7 s⁻¹

Question: What about the kcat/Km (O=C(O)c1cc(O)cc(O)c1) of the same compound?
Answer: 190000 M⁻¹ s⁻¹

Question: What about the Km (O=C(O)c1cc(O)ccc1O) of the same compound?
Answer: 304.2 ± 0.1 µM

Question: And the kcat (O=C(O)c1cc(O)ccc1O)?
Answer: 22.4 s⁻¹

Question: And the kcat/Km (O=C(O)c1cc(O)ccc1O)?
Answer: 70000 M⁻¹ s⁻¹

Question: And the Km [5]?
Answer: 0.4 ± 0.0 µM

Question: What about the kcat [5] of the same compound?
Answer: 52.4 s⁻¹

Question: What about the kcat/Km [5] of the same compound?
Answer: 1.46e+08 M⁻¹ s⁻¹

Question: What about the Km (O=C(O)c1ccc(O)c(O)c1O) of the same compound?
Answer: 84.8 ± 0.0 µM

Question: And the kcat (O=C(O)c1ccc(O)c(O)c1O)?
Answer: 24.5 s⁻¹

Question: And the kcat/Km (O=C(O)c1ccc(O)c(O)c1O)?
Answer: 290000 M⁻¹ s⁻¹

Question: And the Km (OCCc1ccc(O)cc1)?
Answer: 4.5 ± 0.0 µM

Question: And the kcat (OCCc1ccc(O)cc1)?
Answer: 39 s⁻¹

Question: What about the kcat/Km (OCCc1ccc(O)cc1) of the same compound?
Answer: 8.73e+06 M⁻¹ s⁻¹

Question: What about the Km (O=C(O)c1ccc(O)cc1O) of the same compound?
Answer: 119.6 ± 8.3 µM

Question: And the kcat (O=C(O)c1ccc(O)cc1O)?
Answer: 7 s⁻¹

Question: And the kcat/Km (O=C(O)c1ccc(O)cc1O)?
Answer: 60000 M⁻¹ s⁻¹

Question: What about the Km (COc1cc(C(=O)O)ccc1O) of the same compound?
Answer: 948.4 ± 0.2 µM

Question: What about the kcat (COc1cc(C(=O)O)ccc1O) of the same compound?
Answer: 78.5 s⁻¹

Question: What about the kcat/Km (COc1cc(C(=O)O)ccc1O) of the same compound?
Answer: 80000 M⁻¹ s⁻¹

Question: And the Km [6]?
Answer: 6.9 ± 0.3 µM

Question: What about the kcat [6] of the same compound?
Answer: 37.2 s⁻¹

Question: And the kcat/Km [6]?
Answer: 5.4e+06 M⁻¹ s⁻¹

Question: What about the Km [7] of the same compound?
Answer: 0.2 ± 0.0 µM

Question: And the kcat [7]?
Answer: 91.6 s⁻¹

Question: And the kcat/Km [7]?
Answer: 4.72e+08 M⁻¹ s⁻¹

Question: And the Km [8]?
Answer: 0.1 ± 0.0 µM

Question: And the kcat [8]?
Answer: 13.1 s⁻¹

Question: And the kcat/Km [8]?
Answer: 1.22e+08 M⁻¹ s⁻¹

Question: And the Km (OCCc1ccc(O)c(O)c1)?
Answer: 1.6 ± 0.1 µM

Question: What about the kcat (OCCc1ccc(O)c(O)c1) of the same compound?
Answer: 67 s⁻¹

Question: What about the kcat/Km (OCCc1ccc(O)c(O)c1) of the same compound?
Answer: 4.21e+07 M⁻¹ s⁻¹

Question: And the Km [9]?
Answer: 1.7 ± 0.2 µM

Question: And the kcat [9]?
Answer: 102 s⁻¹

Question: What about the kcat/Km [9] of the same compound?
Answer: 6.07e+07 M⁻¹ s⁻¹

Question: What about the Km [10] of the same compound?
Answer: 0.358 ± 0.005 µM

Question: What about the Km (O=C(O)c1ccc(O)c(O)c1) of the same compound?
Answer: 63.9 ± 51.4 µM

Question: And the kcat (O=C(O)c1ccc(O)c(O)c1)?
Answer: 59.2 s⁻¹

Question: What about the kcat/Km (O=C(O)c1ccc(O)c(O)c1) of the same compound?
Answer: 930000 M⁻¹ s⁻¹

Question: And the Km [11]?
Answer: 0.6 ± 0.0 µM

Question: What about the kcat [11] of the same compound?
Answer: 41.4 s⁻¹

Question: And the kcat/Km [11]?
Answer: 6.84e+07 M⁻¹ s⁻¹
